Source: the supplement of paper PMC10724198
± gives the standard deviation of the averaged measurements.

Assays:
Saccharomyces cerevisiae [1] = assay: protein stability index of tFT-peptide fusion (C-terminal peptide) (PSI (0-1 scale)); higher = more stable (slower turnover); settings: genetic background: wild type; temperature: 30 C
Saccharomyces cerevisiae [2] = assay: as above
Description: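 MPS profiling in S. cerevisiae of the tFT-X12 degron library: putative degron peptides plus stable controls, 12 aa, fused to the C-terminus of a sfGFP-mCherry timer. Cells are FACS-sorted into 8 mCherry/sfGFP bins and deep-sequenced. PSI runs from 0 (unstable) to 1 (stable). Backgrounds are wild type, das1Δ and doa10Δ at 30 °C, and wild type, das1Δ, cdc34-1 and cdc53-1 at 37 °C; 2-3 technical replicates each.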

[3] = genetic background: cdc34-1, temperature: 37 C
[4] = genetic background: cdc53-1, temperature: 37 C
[5] = genetic background: das1 deletion, temperature: 30 C
[6] = genetic background: das1 deletion, temperature: 37 C
[7] = genetic background: doa10 deletion, temperature: 30 C
[8] = genetic background: wild type, temperature: 30 C
[9] = genetic background: wild type, temperature: 37 C
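Also: PSI is a weighted mean of sequencing reads over stability bins, variants kept only with over 10 reads, mCherry proximal and sfGFP distal, peptide attached via GGGS linker.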

Sequence | protein stability index (Saccharomyces cerevisiae [1]) | protein stability index (Saccharomyces cerevisiae [2]; [3]) | protein stability index (Saccharomyces cerevisiae [2]; [4]) | protein stability index (Saccharomyces cerevisiae [2]; [5]) | protein stability index (Saccharomyces cerevisiae [2]; [6]) | protein stability index (Saccharomyces cerevisiae [2]; [7]) | protein stability index (Saccharomyces cerevisiae [2]; [8]) | protein stability index (Saccharomyces cerevisiae [2]; [9])
VFFLFAVCSVLV | 0.152 ± 0.02 | 0.0858 ± 0.0079 | 0.18 ± 0.0095 | 0.106 ± 0.029 | 0.2738 ± 0.0011 | 0.0641 ± 0.0032 | 0.0857 ± 0.033 | 0.248 ± 0.04
VFFLRVHFWSFF | 0.2826 ± 0.0026 | 0.377 ± 0.01 | 0.487 ± 0.011 | 0.368 ± 0.029 | 0.53367 ± 0.00033 | 0.138 ± 0.015 | 0.168 ± 0.0092 | 0.246 ± 0.02
VFFLVHFHLPMF | 0.455 ± 0.05 | 0.531 ± 0.053 | 0.57 ± 0.041 | 0.414 ± 0.031 | 0.561 ± 0.01 | 0.394 ± 0.0077 | 0.401 ± 0.019 | 0.536 ± 0.03
VFGFLVFYVCVR | 0.268 ± 0.0095 | 0.0903 ± 0.036 | 0.146 ± 0.021 | 0.153 ± 0.047 | 0.282 ± 0.014 | 0.135 ± 0.027 | 0.151 ± 0.026 | 0.248 ± 0.026
VFHMFGWCGGAR | 0.764 ± 0.071 | 0.728 ± 0.015 | 0.8 ± 0.0098 | 0.673 ± 0.012 | 0.77 ± 0.026 | 0.678 ± 0.042 | 0.673 ± 0.028 | 0.7518 ± 0.0011
VFLFSLCIRLSR | 0.204 ± 0.008 | 0.122 ± 0.065 | 0.214 ± 0.0052 | 0.141 ± 0.031 | 0.289 ± 0.013 | 0.133 ± 0.013 | 0.147 ± 0.018 | 0.248 ± 0.011
VFLVFSVWVVYR | 0.318 ± 0.027 | 0.2 ± 0.0081 | 0.304 ± 0.00039 | 0.233 ± 0.024 | 0.357 ± 0.018 | 0.2068 ± 0.00094 | 0.218 ± 0.026 | 0.343 ± 0.053
VFLVRTVTQISA | 0.304 ± 0.017 | 0.289 ± 0.02 | 0.371 ± 0.033 | 0.291 ± 0.025 | 0.445 ± 0.015 | 0.219 ± 0.0079 | 0.254 ± 0.028 | 0.397 ± 0.016
VFRLFFLLVWLV | 0.123 ± 0.014 | 0.079 ± 0.016 | 0.0744 ± 0.019 | 0.184 ± 0.023 | 0.25 ± 0.0081 | 0.1663 ± 0.00045 | 0.112 ± 0.026 | 0.13 ± 0.021
VFRLLALLWRFF | 0.325 ± 0.056 | 0.606 ± 0.01 | 0.695 ± 0.018 | 0.62 ± 0.031 | 0.767 ± 0.029 | 0.323 ± 0.037 | 0.31 ± 0.022 | 0.42 ± 0.012
